T1: recombinant human MCP-2 (human, UniProt P80075 24-99)
T1 construct: also called rhMCP-2
T1 sequence (looked up): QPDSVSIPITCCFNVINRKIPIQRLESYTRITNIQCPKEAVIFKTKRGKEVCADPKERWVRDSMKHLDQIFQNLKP

T2: human GRO/MGSA (human, UniProt P09341 35-107)
T2 construct: also called hGRO/MGSA; GRO-alpha
T2 sequence (looked up): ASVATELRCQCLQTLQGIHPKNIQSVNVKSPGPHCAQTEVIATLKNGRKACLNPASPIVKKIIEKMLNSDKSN

T3: human MIP-1-alpha (human, UniProt P10147 24-92, limits assumed)
T3 construct: also called hMIP-1-alpha
T3 sequence (looked up): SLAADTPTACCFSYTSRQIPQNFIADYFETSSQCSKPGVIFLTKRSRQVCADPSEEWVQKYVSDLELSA

T4: human RANTES (human, UniProt P13501 24-91)
T4 construct: also called hRANTES
T4 sequence (looked up): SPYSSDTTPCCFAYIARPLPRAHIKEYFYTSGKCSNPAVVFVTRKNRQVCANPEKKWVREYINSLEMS

B1: anti-MCP-1 mAb 1.18.1 (antibody, human IgG2, kappa, V domains shown)
VH: QVQLVQSGAEVKKPGASVKVSCKVSGYTLTELSMHWVRQAPGKGLEWMGGFDPEDGETIYAQKFQGRVTMTEDTSTDTVYMELSSLRSEDTAMYYCATREFWTGYFDHWGQGTLVTVSS
VL: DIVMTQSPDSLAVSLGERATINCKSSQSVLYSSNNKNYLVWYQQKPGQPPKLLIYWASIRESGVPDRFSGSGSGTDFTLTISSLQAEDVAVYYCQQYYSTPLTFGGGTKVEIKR
B2: anti-MCP-1 mAb 1.2.1 (antibody, V domains shown)
VH: QVQLVQSGAEVKKPGASVKVSCKVSGYTFTELSMHWVRQAPGKGLEWMGGFDPEDGETSYAQKFRGRVTMTEDTSTDTAHMELSSLRSEDTAVYYCATNDFWSGYFDYWGQGTLVTVSS
VL: DIQMTQSPSSVSASVGDRVTITCRASQGIDIYLAWYQQKPGKAPKLLINAASSLQNGVPSRFGGSGSGTDFTLTISGLQPEDFATYYCQLTYFFPWTFGQGTKVEIKR
B3: anti-MCP-1 mAb 3.4.1 (antibody, V domains shown)
VH: QVQLVQSGAEVKKPGASVKVSCKVSGYTLTELSMHWVRQAPGKGLEWMGGFDPEDGETMYAQKFQGRVTMTEDTSTDTAYMELSSLRSEDTAVYYCATDDFWSGYFDYWGQGTLVTVSS
VL: DIVMTQSPDSLAVSLDERATINCKSSQSVLYSPNQKNYLVWYQQKPGQPPKLLLYWASIRESGVPDRFSGSGSGTDFTLTISSLQAEDVAVYYCQQSYFTPWTFGQGTKVEIKR
B4: anti-MCP-1 mAb 3.10.1 (antibody, V domains shown)
VH: QVQLVQSGAEVKKPGASVKVSCKVSGYTLTELSMHWVRQAPGKGLEWMGGFDPEDGETIYAQKFQGRVMMTEDTSTDTAFMDLSSLRSEDTAVYYCATDDMLTPHYLYFGMDVWGQGTTVTVSS
VL: DIQMTQSPSSLSASVGDRVTITCRASQGIRNDLGWYQQKPGKAPKRLIYATSSLQSGVPSRFSGSGSGTEFTLTISSLQPEDFATYYCLQHNTYPFTFGPGTKVDIKR
B5: anti-MCP-1 mAb 3.14.1 (antibody, V domains shown)
VH: EQSGPGLVKPSQTLSLTCAISGDSVSSNSAAWNWIRQSPSRGLEWLGRTYYRSKWYSDHAVSVRSRITIYPDTSKNQFSLQLNSVTPEDTAVYYCARDRISGTYVGMDVWGQGTTVTVSS
VL: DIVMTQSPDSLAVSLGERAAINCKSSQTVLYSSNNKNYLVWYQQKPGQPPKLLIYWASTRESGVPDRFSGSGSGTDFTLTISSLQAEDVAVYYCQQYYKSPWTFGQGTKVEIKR
B6: anti-MCP-1 mAb 3.15.1 (antibody, human IgG4, kappa, V domains shown)
VH: QVQLVQSGAEVKKPGASVQVSCKVSGDTLTELSMHWVRQAPGKGLEWMGGFDPEDGETIYARKFQGRVTMTEDTSTDTVYMELSSLRSEDTAVYFCATDSRGYSGYFDNWGQGTLVTVSS
VL: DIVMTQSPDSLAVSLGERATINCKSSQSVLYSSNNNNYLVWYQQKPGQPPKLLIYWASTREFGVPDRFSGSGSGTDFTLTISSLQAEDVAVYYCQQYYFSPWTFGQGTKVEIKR
B7: anti-MCP-1 mAb 3.16.1 (antibody, V domains shown)
VH: QVQLVQSGAEVKKPGASVKVSCKVSGYTLTDLSMHWVRQAPGKGLEWMGGFDPEDGETIYAQKFQGRVTMTEDTSSDTAYMELSSLRSEDTAVYYCATHEFWSGYFDYWGQGTLVTVSS
VL: DIVMTQSPDSLAVSLGERATINCKSSQSVLFSSNNKSYLTWYQQKPGQPPKLLIFWASIRESGVPDRISGSGSGTDLTLTISSLQAEDAAVYYCQQYYSSPWTFGQGTKVEIKR
B8: anti-MCP-1 mAb 4.5.1 (antibody, V domains shown)
VH: QVQLVQSGAEVKKPGASVKVSCKVSGYTLTELSMHWVRQAPGKGLEWMGGFDPEDGETIYAQKFQGRVTMTEDTSTDTAYMELSSLRSEDTAVYYCATDDFWSGYFDYWGQGTLVTVSS
VL: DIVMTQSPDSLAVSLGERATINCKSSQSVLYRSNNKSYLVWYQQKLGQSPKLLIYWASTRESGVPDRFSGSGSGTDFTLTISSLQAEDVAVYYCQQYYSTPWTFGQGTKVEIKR
B9: anti-MCP-1 mAb 4.6.1 (antibody, V domains shown)
VH: QVQLVQSGAEVKKPGASVKVSCKVSGYTLTELSMHWVRQAPGKGLEWMGGFDPEDGETIYAQKFQGRVTMTEDTSTDTAYMELSSLRSEDTAVYYCATDDFWSGYFDYWGQGTLVTVSS
VL: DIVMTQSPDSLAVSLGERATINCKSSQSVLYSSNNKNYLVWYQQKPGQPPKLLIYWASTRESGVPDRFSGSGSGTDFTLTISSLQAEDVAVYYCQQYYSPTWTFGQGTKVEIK

How the values were obtained:
[1] = target: T5, human monocyte chemo-attractant protein-1 (MCP-1) (human, UniProt P13500 24-99); assay: ELISA, coated antigen
T5 construct: 76-residue recombinant protein from E. coli, bought (PeproTech); also called hMCP-1(MCAF); human MCP-1
Procedure: (§1) Determining cross-reactivity of anti-MCP-1 antibodies with other chemokines. ELISA plates (Fisher Cat. No. 12-565-136) were coated with 50 μl/well of MCP-1, MCP-2, MCP-3, MCP-4, RANTES, GRO-alpha, MIP-1 alpha, eotaxin, rat MCP-1 and mouse JE (2 μg/ml) in coating buffer (0.1 M carbonate buffer, pH 9.6, NaHCO₃ 8.4 g/L, then incubated at 4° C. overnight. After incubation, the plates were washed with washing buffer (0.05% Tween 20 in PBS) three times. 200 μL/well blocking buffer (0.5% BSA, 0.1% Tween 20, 0.01% Thimerosal in 1×PBS) were added and the plates incubated at room temperature for 1 hour. After incubation, the plates were washed with washing buffer three times. 50 μL/well of hybridoma supernatants, and positive and negative controls (positive control was anti-MCP-1 antibody purchased from R&D Sciences, and negative control was an antibody to Keyhole Limpet Hemocyanin produced at Abgenix) were added and the plates incubated at room temperature for 2 hours. After incubation, the plates were washed three times with washing buffer. […] After incubation, the plates were washed three times with washing buffer and 100 μL/well of TMB (BioFX Lab. Cat. #TMSK-0 100-01) was added and the plates allowed to develop for about 10 minutes.

[2] = target: T6, recombinant mouse JE/MCP-1 (mouse, UniProt P10148 24-148); assay: ELISA, coated antigen
T6 construct: also called rmJE/MCP-1
Procedure: as §1

[3] = target: rat MCP-1 (rat, UniProt P14844 24-148); assay: ELISA, coated antigen
Procedure: as §1

[4] = target: T1, recombinant human MCP-2; assay: ELISA, coated antigen
Procedure: as §1

[5] = target: T7, recombinant human MCP-3 (human, UniProt P80098 24-99); assay: ELISA, coated antigen
T7 construct: also called rhMCP-3
Procedure: as §1

[6] = target: T8, recombinant human MCP-4 (human, UniProt Q99616 24-98, limits assumed); assay: ELISA, coated antigen
T8 construct: also called rhMCP-4
Procedure: as §1

[7] = target: T2, human GRO/MGSA; assay: ELISA, coated antigen
Procedure: as §1

[8] = target: T3, human MIP-1-alpha; assay: ELISA, coated antigen
Procedure: as §1

[9] = target: T4, human RANTES; assay: ELISA, coated antigen
Procedure: as §1

[10] = target: T9, human eotaxin (human, UniProt P51671 24-97); assay: ELISA, coated antigen
T9 construct: also called hEotaxin
Procedure: as §1

[11] = target: T5, human monocyte chemo-attractant …; assay: cell-based or functional assay
[12] = target: T5, human monocyte chemo-attractant …; assay: ELISA, hybridoma supernatant on coated MCP-1
Procedure: Selection of candidate antibodies for ELISA. After 14 days of culture, hybridoma supernatants were screened for MCP-1-specific monoclonal antibodies. The ELISA plates (Fisher, Cat. No. 12-565-136) were coated with 50 μl/well of MCP-1 (2 μg/mL) in Coating Buffer (0.1 M Carbonate Buffer, pH 9.6, NaHCO₃8.4 g/L), then incubated at 4° C. overnight. After incubation, the plates were washed with Washing Buffer (0.05% Tween 20 in PBS) three times. 200 μl/well Blocking Buffer (0.5% BSA, 0.1% Tween 20, 0.01% Thimerosal in 1× PBS) were added and the plates incubated at room temperature for 1 hour. After incubation, the plates were washed with Washing Buffer three times. 50 μL/well of hybridoma supernatants, and positive and negative controls were added and the plates incubated at room temperature for 2 hours.
The positive control used throughout was XMG2 MCP-1 Group 1, footpad N160-7 and the negative control was XMG2 KLH Group 1, footpad L627-6. After incubation, the plates were washed three times with Washing Buffer. […] In the secondary screen, three sets of samples (positives in first screening) were screened, one set for hIgG detection, one set for hKappa detection, and one set for hlambda detection. After incubation, the plates were washed three times with Washing Buffer. 100 μL/well of TMB (BioFX Lab. Cat. #TMSK-0100-01) were added and the plates allowed to develop for about 10 minutes (until negative control wells barely started to show color), then 50 μL/well stop solution (TMB Stop Solution (BioFX Lab. Cat. #STPR-0100-01) were added and the plates read on an ELISA plate reader at wavelength 450 nm. The OD readings from the positive wells are presented in Table 9.

T6 sequence (P10148 24-148 limits assumed): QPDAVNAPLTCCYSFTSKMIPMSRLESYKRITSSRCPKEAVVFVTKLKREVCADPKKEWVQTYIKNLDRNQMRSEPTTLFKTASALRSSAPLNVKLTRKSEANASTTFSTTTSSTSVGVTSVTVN
T7 sequence (P80098 24-99 limits assumed): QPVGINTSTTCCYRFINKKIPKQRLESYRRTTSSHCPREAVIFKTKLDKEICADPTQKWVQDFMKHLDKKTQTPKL
T5 sequence (P13500 24-99): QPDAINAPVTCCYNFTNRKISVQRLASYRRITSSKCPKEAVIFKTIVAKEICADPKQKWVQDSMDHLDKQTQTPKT
T9 sequence (P51671 24-97 limits assumed): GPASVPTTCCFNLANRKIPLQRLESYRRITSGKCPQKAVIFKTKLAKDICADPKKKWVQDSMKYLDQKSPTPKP
Sequence of rat MCP-1 (P14844 24-148 limits assumed): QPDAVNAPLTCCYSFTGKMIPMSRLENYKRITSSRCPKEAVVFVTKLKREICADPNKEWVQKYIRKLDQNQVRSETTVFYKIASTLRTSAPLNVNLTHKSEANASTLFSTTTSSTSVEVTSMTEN
T8 sequence (Q99616 24-98 limits assumed): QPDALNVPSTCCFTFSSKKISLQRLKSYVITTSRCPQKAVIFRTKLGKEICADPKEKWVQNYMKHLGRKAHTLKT

Binder | ELISA OD [1] [OD450] | ELISA OD [2] [OD450] | ELISA OD [3] [OD450] | ELISA OD [4] [OD450] | ELISA OD [5] [OD450] | ELISA OD [6] [OD450] | ELISA OD [7] [OD450] | ELISA OD [8] [OD450] | ELISA OD [9] [OD450] | ELISA OD [10] [OD450] | IC50 Ca++ Flux [11] [µg/mL] | IC50 Chemotaxis [11] [µg/mL] | ELISA OD-MCP-1 [12] [OD450]
B1 | 1.23 | 0.044 | 0.058 | 0.04 | 0.045 | 0.045 | 0.049 | 0.043 | 0.04 | 0.043 | 0.18 | 0.29 | 0.998
B2 | 1.16 | 0.041 | 0.044 | 0.056 | 0.048 | 0.055 | 0.044 | 0.04 | 0.04 | 0.044 | 0.18 | 0.24 | 3.47
B3 | 1.15 | 0.044 | 0.053 | 0.042 | 0.05 | 0.047 | 0.065 | 0.055 | 0.046 | 0.048 | 0.24 | 0.51 | 3.86
B4 | 0.71 | 0.054 | 0.045 | 0.845 | 0.167 | 0.042 | 0.042 | 0.043 | 0.04 | 0.306 | 0.3 | 0.25 | 3.63
B5 | 0.549 | 0.044 | 0.046 | 0.045 | 0.05 | 0.045 | 0.046 | 0.046 | 0.045 | 0.043 | 1.3 | 1.4 | 4
B6 | 0.948 | 0.041 | 0.05 | 0.043 | 0.046 | 0.051 | 0.044 | 0.045 | 0.049 | 0.045 | 0.12 | 0.89 | 4
B7 | 0.633 | 0.042 | 0.046 | 0.049 | 0.043 | 0.043 | 0.043 | 0.043 | 0.042 | 0.043 | 0.16 | 0.4 | 3.92
B8 | 0.957 | 0.049 | 0.055 | 0.042 | 0.046 | 0.046 | 0.045 | 0.046 | 0.049 | 0.041 | 0.27 | 0.75 | 3.38
B9 | 0.686 | 0.049 | 0.05 | 0.047 | 0.05 | 0.047 | 0.046 | 0.055 | 0.053 | 0.049 | 0.31 | 0.4 | 3.51

Source: patent US20050058639A1 (AstraZeneca / MedImmune, published 2005)
